The target of one assay is Homer1 EVH1 domain (Homo sapiens, UniProt Q86YM7). Particulars: read-out: K D ^Homer1; pH 7.6; SD.
Assay [1] concerns ENAH EVH1 domain tetramers. Briefly: Peptide SPOT array, ENAH EVH1 domain tetramers. The following applies: SPOT intensities, tetrameric EVH1, 0.5 μM monomer. Format: binding, human. On the procedure:
Protein expression was carried out as above.
ABI3 substitution and overlapping motif SPOT arrays were synthesized at the MIT Biopolymer Facility using an Intavis SPOT synthesis peptide arrayer system. At the N‐terminus, the 20‐mer peptides were capped with a Gly‐Ser linker and acetylated. The peptides were linked to the cellulose membrane by a C‐terminal PEG spacer. For the overlapping motif array, because many of the peptide sequences contain additional Ena/VASP and Homer motifs, each peptide was also synthesized as a control where the internal proline tract was mutated to poly‐glycine. The protocol for blocking and probing the membrane was adapted from Frank and Dübel ([2006]). […] The following day, the array was washed in T‐TBS (TBS + 0.05% Tween‐20) and then incubated with the protein sample in MBS (+1 μM DTT) for 3 h at room temperature. All array experiments were carried out with streptavidin‐Cy3 (Thermo Fisher) pre‐tetramerized EVH1 at a final monomer concentration of 0.5 μM. The membrane was washed three times in T‐TBS prior to scanning on a GE Amersham Imager 680. SPOT intensities were calculated using the ImageJ analysis software (Abràmoff et al., [2004]). No background correction was performed. For the overlapping peptides, the final intensity was calculated as the difference between the intensity of the wild‐type and motif knockout control. […]

In assay [2] the target is ddEVH1 (D. discoideum EVH1 domain of ddVASP) (Dictyostelium discoideum, UniProt Q5TJ65).
ddEVH1 (D. discoideum EVH1 domain of ddVASP), sequence (Q5TJ65 with tags, fused parts or gaps): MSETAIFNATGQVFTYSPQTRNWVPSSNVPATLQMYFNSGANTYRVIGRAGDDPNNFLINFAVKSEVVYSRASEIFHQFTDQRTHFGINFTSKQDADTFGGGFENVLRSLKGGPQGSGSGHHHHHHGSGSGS

Homer1 EVH1 domain, sequence (Q86YM7 with tags, fused parts or gaps): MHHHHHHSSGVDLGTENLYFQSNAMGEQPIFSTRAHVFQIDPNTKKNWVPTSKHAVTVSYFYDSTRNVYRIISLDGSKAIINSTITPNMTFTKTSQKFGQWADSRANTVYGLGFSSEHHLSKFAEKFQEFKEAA

With DIESDFPPPPEDFPAADELP [FAT1], the Kd with Homer1 EVH1 domain came to 98 ± 7 µM. Moreover, the “Binding to ENAH relative to Homer1 EVH1 in the SPOT array assay” value in assay [1] is on record as “two‐ to three‐fold better”. In assay [2], the “ddEVH1 binding, result in words” value was “bound poorly”.

The record behind these values is paper PMC11237882 (Protein Science : A Publication of the Protein Society, 2024).
